Test results taken from patent US20230365662A1.
Values joined by “and” are separate entries in the source; they are usually repeats but may differ in a detail not shown here. Identical values can stand only once.

B1: KB001 parental mouse Fab VH variant N100S (Fab, V domains shown)
VH: EVQLKQSGPGLVAPSQSLSITCTVSGFSLSIYSVHWVRQPPGKGLEWLGMIWGGGSSDYNSALKSRLSISKDNSKSQVFLKMNSLQTDDTAMYYCARNGSFYAMDYWGQGTSVTVSS
VL: QIVLTQSPAIMSASLGERVTMTCTASSSVSSSFLHWYQQKPGSSPQLWIYSTSNLASGVPARFSGSGSGTSYSLTISSMEAEDAATYYCHQYHHSPYIYTFGGGTKLEIK
B2: KB001 parental mouse Fab VH variant A103L (Fab, V domains shown)
VH: EVQLKQSGPGLVAPSQSLSITCTVSGFSLSIYSVHWVRQPPGKGLEWLGMIWGGGSSDYNSALKSRLSISKDNSKSQVFLKMNSLQTDDTAMYYCARNGNFYLMDYWGQGTSVTVSS
VL: QIVLTQSPAIMSASLGERVTMTCTASSSVSSSFLHWYQQKPGSSPQLWIYSTSNLASGVPARFSGSGSGTSYSLTISSMEAEDAATYYCHQYHHSPYIYTFGGGTKLEIK
B3: KB001 parental mouse Fab VH variant F101W (Fab, V domains shown)
VH: EVQLKQSGPGLVAPSQSLSITCTVSGFSLSIYSVHWVRQPPGKGLEWLGMIWGGGSSDYNSALKSRLSISKDNSKSQVFLKMNSLQTDDTAMYYCARNGNWYAMDYWGQGTSVTVSS
VL: QIVLTQSPAIMSASLGERVTMTCTASSSVSSSFLHWYQQKPGSSPQLWIYSTSNLASGVPARFSGSGSGTSYSLTISSMEAEDAATYYCHQYHHSPYIYTFGGGTKLEIK
B4: KB001 parental mouse Fab VH variant N100R (Fab, V domains shown)
VH: EVQLKQSGPGLVAPSQSLSITCTVSGFSLSIYSVHWVRQPPGKGLEWLGMIWGGGSSDYNSALKSRLSISKDNSKSQVFLKMNSLQTDDTAMYYCARNGRFYAMDYWGQGTSVTVSS
VL: QIVLTQSPAIMSASLGERVTMTCTASSSVSSSFLHWYQQKPGSSPQLWIYSTSNLASGVPARFSGSGSGTSYSLTISSMEAEDAATYYCHQYHHSPYIYTFGGGTKLEIK
B5: KB001 parental mouse Fab VH variant N100T (Fab, V domains shown)
VH: EVQLKQSGPGLVAPSQSLSITCTVSGFSLSIYSVHWVRQPPGKGLEWLGMIWGGGSSDYNSALKSRLSISKDNSKSQVFLKMNSLQTDDTAMYYCARNGTFYAMDYWGQGTSVTVSS
VL: QIVLTQSPAIMSASLGERVTMTCTASSSVSSSFLHWYQQKPGSSPQLWIYSTSNLASGVPARFSGSGSGTSYSLTISSMEAEDAATYYCHQYHHSPYIYTFGGGTKLEIK
B6: KB001 parental mouse Fab VH variant F101M (Fab, V domains shown)
VH: EVQLKQSGPGLVAPSQSLSITCTVSGFSLSIYSVHWVRQPPGKGLEWLGMIWGGGSSDYNSALKSRLSISKDNSKSQVFLKMNSLQTDDTAMYYCARNGNMYAMDYWGQGTSVTVSS
VL: QIVLTQSPAIMSASLGERVTMTCTASSSVSSSFLHWYQQKPGSSPQLWIYSTSNLASGVPARFSGSGSGTSYSLTISSMEAEDAATYYCHQYHHSPYIYTFGGGTKLEIK
B7: KB001 parental mouse Fab VH variant N100Y (Fab, V domains shown)
VH: EVQLKQSGPGLVAPSQSLSITCTVSGFSLSIYSVHWVRQPPGKGLEWLGMIWGGGSSDYNSALKSRLSISKDNSKSQVFLKMNSLQTDDTAMYYCARNGYFYAMDYWGQGTSVTVSS
VL: QIVLTQSPAIMSASLGERVTMTCTASSSVSSSFLHWYQQKPGSSPQLWIYSTSNLASGVPARFSGSGSGTSYSLTISSMEAEDAATYYCHQYHHSPYIYTFGGGTKLEIK
B8: KB001 parental mouse Fab VH variant N100L (Fab, V domains shown)
VH: EVQLKQSGPGLVAPSQSLSITCTVSGFSLSIYSVHWVRQPPGKGLEWLGMIWGGGSSDYNSALKSRLSISKDNSKSQVFLKMNSLQTDDTAMYYCARNGLFYAMDYWGQGTSVTVSS
VL: QIVLTQSPAIMSASLGERVTMTCTASSSVSSSFLHWYQQKPGSSPQLWIYSTSNLASGVPARFSGSGSGTSYSLTISSMEAEDAATYYCHQYHHSPYIYTFGGGTKLEIK
B9: KB001 parental mouse Fab VH variant A103V (Fab, V domains shown)
VH: EVQLKQSGPGLVAPSQSLSITCTVSGFSLSIYSVHWVRQPPGKGLEWLGMIWGGGSSDYNSALKSRLSISKDNSKSQVFLKMNSLQTDDTAMYYCARNGNFYVMDYWGQGTSVTVSS
VL: QIVLTQSPAIMSASLGERVTMTCTASSSVSSSFLHWYQQKPGSSPQLWIYSTSNLASGVPARFSGSGSGTSYSLTISSMEAEDAATYYCHQYHHSPYIYTFGGGTKLEIK
B10: KB001 parental mouse Fab VH variant N100K (Fab, V domains shown)
VH: EVQLKQSGPGLVAPSQSLSITCTVSGFSLSIYSVHWVRQPPGKGLEWLGMIWGGGSSDYNSALKSRLSISKDNSKSQVFLKMNSLQTDDTAMYYCARNGKFYAMDYWGQGTSVTVSS
VL: QIVLTQSPAIMSASLGERVTMTCTASSSVSSSFLHWYQQKPGSSPQLWIYSTSNLASGVPARFSGSGSGTSYSLTISSMEAEDAATYYCHQYHHSPYIYTFGGGTKLEIK
B11: KB001 parental mouse Fab VH variant N100C (Fab, V domains shown)
VH: EVQLKQSGPGLVAPSQSLSITCTVSGFSLSIYSVHWVRQPPGKGLEWLGMIWGGGSSDYNSALKSRLSISKDNSKSQVFLKMNSLQTDDTAMYYCARNGCFYAMDYWGQGTSVTVSS
VL: QIVLTQSPAIMSASLGERVTMTCTASSSVSSSFLHWYQQKPGSSPQLWIYSTSNLASGVPARFSGSGSGTSYSLTISSMEAEDAATYYCHQYHHSPYIYTFGGGTKLEIK
B12: KB001 parental mouse Fab VH variant N100Q (Fab, V domains shown)
VH: EVQLKQSGPGLVAPSQSLSITCTVSGFSLSIYSVHWVRQPPGKGLEWLGMIWGGGSSDYNSALKSRLSISKDNSKSQVFLKMNSLQTDDTAMYYCARNGQFYAMDYWGQGTSVTVSS
VL: QIVLTQSPAIMSASLGERVTMTCTASSSVSSSFLHWYQQKPGSSPQLWIYSTSNLASGVPARFSGSGSGTSYSLTISSMEAEDAATYYCHQYHHSPYIYTFGGGTKLEIK
B13: KB001 parental mouse Fab VH variant A103M (Fab, V domains shown)
VH: EVQLKQSGPGLVAPSQSLSITCTVSGFSLSIYSVHWVRQPPGKGLEWLGMIWGGGSSDYNSALKSRLSISKDNSKSQVFLKMNSLQTDDTAMYYCARNGNFYMMDYWGQGTSVTVSS
VL: QIVLTQSPAIMSASLGERVTMTCTASSSVSSSFLHWYQQKPGSSPQLWIYSTSNLASGVPARFSGSGSGTSYSLTISSMEAEDAATYYCHQYHHSPYIYTFGGGTKLEIK
B14: KB001 parental mouse Fab VH variant N100E (Fab, V domains shown)
VH: EVQLKQSGPGLVAPSQSLSITCTVSGFSLSIYSVHWVRQPPGKGLEWLGMIWGGGSSDYNSALKSRLSISKDNSKSQVFLKMNSLQTDDTAMYYCARNGEFYAMDYWGQGTSVTVSS
VL: QIVLTQSPAIMSASLGERVTMTCTASSSVSSSFLHWYQQKPGSSPQLWIYSTSNLASGVPARFSGSGSGTSYSLTISSMEAEDAATYYCHQYHHSPYIYTFGGGTKLEIK
B15: KB001 parental mouse Fab VH variant N100A (Fab, V domains shown)
VH: EVQLKQSGPGLVAPSQSLSITCTVSGFSLSIYSVHWVRQPPGKGLEWLGMIWGGGSSDYNSALKSRLSISKDNSKSQVFLKMNSLQTDDTAMYYCARNGAFYAMDYWGQGTSVTVSS
VL: QIVLTQSPAIMSASLGERVTMTCTASSSVSSSFLHWYQQKPGSSPQLWIYSTSNLASGVPARFSGSGSGTSYSLTISSMEAEDAATYYCHQYHHSPYIYTFGGGTKLEIK
B16: KB001 parental mouse Fab VH variant N100F (Fab, V domains shown)
VH: EVQLKQSGPGLVAPSQSLSITCTVSGFSLSIYSVHWVRQPPGKGLEWLGMIWGGGSSDYNSALKSRLSISKDNSKSQVFLKMNSLQTDDTAMYYCARNGFFYAMDYWGQGTSVTVSS
VL: QIVLTQSPAIMSASLGERVTMTCTASSSVSSSFLHWYQQKPGSSPQLWIYSTSNLASGVPARFSGSGSGTSYSLTISSMEAEDAATYYCHQYHHSPYIYTFGGGTKLEIK
B17: KB001 parental mouse Fab VH variant F101L (Fab, V domains shown)
VH: EVQLKQSGPGLVAPSQSLSITCTVSGFSLSIYSVHWVRQPPGKGLEWLGMIWGGGSSDYNSALKSRLSISKDNSKSQVFLKMNSLQTDDTAMYYCARNGNLYAMDYWGQGTSVTVSS
VL: QIVLTQSPAIMSASLGERVTMTCTASSSVSSSFLHWYQQKPGSSPQLWIYSTSNLASGVPARFSGSGSGTSYSLTISSMEAEDAATYYCHQYHHSPYIYTFGGGTKLEIK
B18: KB001 parental mouse Fab VH variant A103G (Fab, V domains shown)
VH: EVQLKQSGPGLVAPSQSLSITCTVSGFSLSIYSVHWVRQPPGKGLEWLGMIWGGGSSDYNSALKSRLSISKDNSKSQVFLKMNSLQTDDTAMYYCARNGNFYGMDYWGQGTSVTVSS
VL: QIVLTQSPAIMSASLGERVTMTCTASSSVSSSFLHWYQQKPGSSPQLWIYSTSNLASGVPARFSGSGSGTSYSLTISSMEAEDAATYYCHQYHHSPYIYTFGGGTKLEIK
B19: KB001 parental mouse Fab VH variant F101S (Fab, V domains shown)
VH: EVQLKQSGPGLVAPSQSLSITCTVSGFSLSIYSVHWVRQPPGKGLEWLGMIWGGGSSDYNSALKSRLSISKDNSKSQVFLKMNSLQTDDTAMYYCARNGNSYAMDYWGQGTSVTVSS
VL: QIVLTQSPAIMSASLGERVTMTCTASSSVSSSFLHWYQQKPGSSPQLWIYSTSNLASGVPARFSGSGSGTSYSLTISSMEAEDAATYYCHQYHHSPYIYTFGGGTKLEIK
B20: KB001 parental mouse Fab VH variant N100G (Fab, V domains shown)
VH: EVQLKQSGPGLVAPSQSLSITCTVSGFSLSIYSVHWVRQPPGKGLEWLGMIWGGGSSDYNSALKSRLSISKDNSKSQVFLKMNSLQTDDTAMYYCARNGGFYAMDYWGQGTSVTVSS
VL: QIVLTQSPAIMSASLGERVTMTCTASSSVSSSFLHWYQQKPGSSPQLWIYSTSNLASGVPARFSGSGSGTSYSLTISSMEAEDAATYYCHQYHHSPYIYTFGGGTKLEIK

Molecular target: HRgpA-6H (Porphyromonas gingivalis) (UniProt P28784)
Assay: ELISA, Fab FASEBA supernatant on coated HRgpA-6H (0.0625 ug/ml)

Sequence of UniProt P28784 (P28784 228-991 limits assumed): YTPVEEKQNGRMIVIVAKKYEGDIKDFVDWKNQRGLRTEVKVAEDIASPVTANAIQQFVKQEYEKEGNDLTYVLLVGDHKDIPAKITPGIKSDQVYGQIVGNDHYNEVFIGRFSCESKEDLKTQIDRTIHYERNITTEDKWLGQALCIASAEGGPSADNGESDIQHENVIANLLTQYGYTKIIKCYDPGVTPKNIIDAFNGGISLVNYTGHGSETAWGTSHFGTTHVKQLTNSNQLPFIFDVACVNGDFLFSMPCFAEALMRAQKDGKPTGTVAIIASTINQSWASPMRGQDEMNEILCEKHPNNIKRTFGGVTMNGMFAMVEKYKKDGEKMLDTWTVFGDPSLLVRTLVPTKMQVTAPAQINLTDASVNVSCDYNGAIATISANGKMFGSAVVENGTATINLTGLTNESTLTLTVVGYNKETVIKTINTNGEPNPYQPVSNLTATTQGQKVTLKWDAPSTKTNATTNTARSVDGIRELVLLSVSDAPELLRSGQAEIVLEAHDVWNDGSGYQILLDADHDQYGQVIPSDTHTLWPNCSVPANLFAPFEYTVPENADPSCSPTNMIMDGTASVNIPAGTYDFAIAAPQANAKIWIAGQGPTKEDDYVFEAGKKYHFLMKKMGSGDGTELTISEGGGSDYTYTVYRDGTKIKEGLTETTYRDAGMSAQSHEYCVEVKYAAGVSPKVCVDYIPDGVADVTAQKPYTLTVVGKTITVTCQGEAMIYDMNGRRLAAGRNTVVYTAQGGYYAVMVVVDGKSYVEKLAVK

Q: B1 was tested. Which OD450nm did it give?
A: 0.799 and 0.844 and 0.805

Q: And the Ratio OD(Variant)/OD(WT)?
A: 0.943 and 0.996 and 0.95

Q: How did the OD450nm turn out when B2 was run?
A: 0.783

Q: And the Ratio OD(Variant)/OD(WT)?
A: 0.908

Q: With B3 as the binder, how does the OD450nm read?
A: 0.825 and 0.828 and 0.802

Q: And the Ratio OD(Variant)/OD(WT)?
A: 0.974 and 0.978 and 0.947

Q: What does the source list for B4?
A: OD450nm: 0.788; Ratio OD(Variant)/OD(WT): 0.93

Q: How did the OD450nm turn out when B5 was run?
A: 0.756 and 0.783

Q: And the Ratio OD(Variant)/OD(WT)?
A: 0.893 and 0.924

Q: How did the OD450nm turn out when B6 was run?
A: 0.755

Q: And the Ratio OD(Variant)/OD(WT)?
A: 0.891

Q: How did the OD450nm turn out when B7 was run?
A: 0.757 and 0.784 and 0.699

Q: What about the Ratio OD(Variant)/OD(WT) of the same binder?
A: 0.894 and 0.926 and 0.825

Q: With B8 as the binder, how does the OD450nm read?
A: 0.817 and 0.736 and 0.789

Q: And the Ratio OD(Variant)/OD(WT)?
A: 0.965 and 0.869 and 0.932

Q: B9 was tested. Which OD450nm did it give?
A: 0.849 and 0.807

Q: And the Ratio OD(Variant)/OD(WT)?
A: 0.985 and 0.936

Q: Which results are given for B10?
A: OD450nm: 0.801 and 0.791; Ratio OD(Variant)/OD(WT): 0.946 and 0.934

Q: Which results are given for B11?
A: OD450nm: 0.688; Ratio OD(Variant)/OD(WT): 0.812

Q: Which results are given for B12?
A: OD450nm: 0.846; Ratio OD(Variant)/OD(WT): 0.999

Q: For B13, which OD450nm is on record?
A: 0.811

Q: And the Ratio OD(Variant)/OD(WT)?
A: 0.941

Q: What does the source list for B14?
A: OD450nm: 0.823; Ratio OD(Variant)/OD(WT): 0.972

Q: With B15 as the binder, how does the OD450nm read?
A: 0.809

Q: And the Ratio OD(Variant)/OD(WT)?
A: 0.955

Q: Which OD450nm does the source give for B16 here?
A: 0.779

Q: And the Ratio OD(Variant)/OD(WT)?
A: 0.92

Q: What does the source list for B17?
A: OD450nm: 0.681; Ratio OD(Variant)/OD(WT): 0.804

Q: What does the source list for B18?
A: OD450nm: 0.815 and 0.804 and 0.755; Ratio OD(Variant)/OD(WT): 0.945 and 0.933 and 0.876

Q: With B19 as the binder, how does the OD450nm read?
A: 0.678 and 0.725

Q: And the Ratio OD(Variant)/OD(WT)?
A: 0.8 and 0.856

Q: How did the OD450nm turn out when B20 was run?
A: 0.769 and 0.814

Q: What about the Ratio OD(Variant)/OD(WT) of the same binder?
A: 0.908 and 0.961
